In article PMC9158529, “AfCHIL, a Type IV Chalcone Isomerase, Enhances the Biosynthesis of Naringenin in Metabolic Engineering” (Frontiers in Plant Science, 2022):

Assays:
AfCHS = tested on: T1, AfCHS; assay: HPLC at […] nm, Michaelis-Menten fit; assay type: biochemical, Allium fistulosum; conditions: 200 uM malonyl-CoA, 20-200 uM p-coumaroyl-CoA, HEPES-KOH pH 7.0, 2 mM DTT, 35 °C, 30 min
T1 construct: gene CHS; complete ORF in pET-15b, His6-tagged, E. coli BL21 (DE3), His-tag purified

AfCHS/AfCHIL = tested on: T2, AfCHS/AfCHIL; assay: HPLC at […] nm, Michaelis-Menten fit; assay type: biochemical, Allium fistulosum; conditions: AfCHIL present; 200 uM malonyl-CoA, 20-200 uM p-coumaroyl-CoA
T2 construct: gene CHS; complete ORFs in pET-15b, His6-tagged, E. coli BL21 (DE3), combined in the assay; legend calls it AfCHIL/AfCHS1; with Chalcone isomerase-like protein (type IV chalcone isomerase)

[1] = biological target: AfCHS, chalcone synthase of Allium fistulosum (yeast two-hybrid fusion) (Allium fistulosum)
[2] = biological target: AfCHS, chalcone synthase of Allium fistulosum (yeast two-hybrid fusion) (Allium fistulosum); remark: listed apart in the source

Compound | Km (AfCHS) [µM] | Km (AfCHS/AfCHIL) [µM] | by-product CTAL produced by purified AfCHS in vitro with AfCHIL present, against AfCHS alone [1] [% decrease] | naringenin produced by purified AfCHS in vitro with AfCHIL present, against AfCHS alone [1] [times] | Kcat of purified His6-AfCHS (p-coumaroyl-CoA and malonyl-CoA as substrates) in the presence of purified His6-AfCHIL, against AfCHS alone [2] [times]
CC(C)(COP(=O)(O)OP(=O)(O)OC[C@H]1O[C@@H](n2cnc3c(N)ncnc32)[C@H](O)[C@@H]1OP(=O)(O)O)[C@@H](O)C(=O)NCCC(=O)NCCSC(=O)/C=C/c1ccc(O)cc1 [p-coumaroyl-CoA] | 55.1 ± 12.5 | 53.9 ± 10 |  |  | 
AfCHIL, type IV chalcone isomerase of Allium fistulosum (yeast two-hybrid fusion) (natural protein) |  |  | 30 | 2.2 | 2.7
